# Reference: article PMC8131759
# What was measured:
# [1] = target: bacteriophage P22 coat protein (CP), assembled as P22 virus-like particle capsid (bacteriophage P22) (UniProt P26747); assay: SEC-MALS; expanded (EX) VLPs made from PC by 3.5 mM SDS for 5 min at room temperature, then ultracentrifuged twice; also SDS-PAGE and TEM
# [2] = target: bacteriophage P22 coat protein (CP), assembled as P22 virus-like particle capsid (bacteriophage P22) (UniProt P26747); assay: SEC-MALS; procapsid (PC) VLPs from co-expression of CP and AdhD-SP in E. coli, purified; also SDS-PAGE and TEM; cargo number calculated from the molar mass of the particles; 50 mM sodium phosphate, 100 mM sodium chloride, pH 7.0
# Sequence of UniProt P26747 (P26747 whole entry): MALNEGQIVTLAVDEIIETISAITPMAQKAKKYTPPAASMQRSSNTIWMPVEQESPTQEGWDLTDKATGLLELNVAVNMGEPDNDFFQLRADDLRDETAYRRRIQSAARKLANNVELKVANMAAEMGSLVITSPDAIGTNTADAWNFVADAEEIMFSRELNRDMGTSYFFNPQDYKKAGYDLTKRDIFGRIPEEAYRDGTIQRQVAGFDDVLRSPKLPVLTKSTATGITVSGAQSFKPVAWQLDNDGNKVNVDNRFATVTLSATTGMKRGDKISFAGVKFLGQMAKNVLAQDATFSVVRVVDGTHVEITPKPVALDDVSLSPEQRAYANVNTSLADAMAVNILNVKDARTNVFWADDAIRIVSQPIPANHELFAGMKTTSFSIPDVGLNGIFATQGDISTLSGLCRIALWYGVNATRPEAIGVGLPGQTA
substance,measurement,setting,value
alcohol dehydrogenase-D (AdhD) fused to P22 scaffolding protein (AdhD-SP) (enzyme),stoichiometry N (AdhD-SP per VLP),[1],174
same,stoichiometry N (AdhD per capsid),[2],204
